From paper PMC6445466, “Structural determination of the complement inhibitory domain of Borrelia burgdorferi BBK32 provides insight into classical pathway complement evasion by Lyme disease spirochetes” (PLoS Pathogens, 2019)
Where a chain is given by its changes, count along the chain named. Numbers in names are those of the source.

Tests used:
[1] = molecular target: T1, human C1r, full-length enzyme (human, UniProt P00736 18-705); assay: cell-based or functional assay
T1 sequence: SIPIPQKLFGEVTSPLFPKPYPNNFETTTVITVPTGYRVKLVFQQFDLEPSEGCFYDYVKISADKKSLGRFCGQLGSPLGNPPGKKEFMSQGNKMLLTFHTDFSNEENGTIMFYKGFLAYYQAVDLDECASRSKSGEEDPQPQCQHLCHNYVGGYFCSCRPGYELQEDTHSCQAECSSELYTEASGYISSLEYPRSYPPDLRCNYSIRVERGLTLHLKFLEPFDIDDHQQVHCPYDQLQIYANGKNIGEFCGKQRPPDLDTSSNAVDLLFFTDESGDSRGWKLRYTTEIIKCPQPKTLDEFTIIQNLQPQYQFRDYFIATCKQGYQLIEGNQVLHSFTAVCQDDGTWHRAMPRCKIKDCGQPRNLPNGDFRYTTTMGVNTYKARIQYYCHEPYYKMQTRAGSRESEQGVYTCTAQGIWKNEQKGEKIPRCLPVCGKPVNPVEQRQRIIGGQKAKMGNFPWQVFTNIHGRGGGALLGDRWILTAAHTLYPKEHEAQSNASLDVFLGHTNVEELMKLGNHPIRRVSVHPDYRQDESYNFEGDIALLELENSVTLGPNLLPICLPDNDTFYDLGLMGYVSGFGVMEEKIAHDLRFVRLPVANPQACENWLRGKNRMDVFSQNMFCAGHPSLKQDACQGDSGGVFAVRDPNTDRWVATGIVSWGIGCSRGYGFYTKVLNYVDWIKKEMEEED

[2] = molecular target: T2, human C1r, full-length enzyme (human, UniProt P00736 18-705); assay: SPR; Biacore T200, 25°C; borrelial protein immobilised by amine coupling; C1r as analyte, single-cycle kinetics, five-fold dilution series 1.6 to 1000 nM; HBS-T with 5 mM CaCl2; 1:1 kinetic fit; triplicate; settings: both partners purified
T2 construct: complement C1r, human, 92 kDa, CUB1-EGF-CUB2-CCP1-CCP2-SP; bought as purified full-length enzyme; source: bought: Complement Technology (Tyler, TX), purified
T2 sequence: T1 sequence

[3] = molecular target: T3, human C1 complex (human, UniProt P02745 23-245; P02746 28-253; P02747 29-245); assay: SPR; Biacore T200, 25°C; borrelial protein immobilised by amine coupling (CMD200M chip); C1 as analyte, two-fold dilution series 0 to 150 nM, 2 min association, 3 min dissociation; HBS-T (20 mM HEPES pH 7.3, 140 mM NaCl, 0.005% Tween-20) with 5 mM CaCl2; 1:1 kinetic fit; triplicate; settings: both partners purified
T3 construct: C1q subunit A, human; C1q subunit B, human; C1q subunit C, human; complement C1r, human, within the C1r2C1s2 heterotetramer; complement C1s, human, within the C1r2C1s2 heterotetramer; also called first component of complement; source: bought: Complement Technology (Tyler, TX), purified; copies: + + + 2 + 2

[4] = molecular target: T4, His-C1r-CCP2-SP (residues 376-705) (human, UniProt P00736 376-705); assay: SPR; Biacore T200, 25 °C, BBK32(206-348) immobilised; C1r fragments as analytes, single-cycle as for C1r, 0.8 to 500 nM; 1:1 Langmuir fit; settings: both partners purified
T4 construct: complement C1r, human, CCP2-SP domains, residues 376-705 as defined by UniProt P00736
T4 sequence: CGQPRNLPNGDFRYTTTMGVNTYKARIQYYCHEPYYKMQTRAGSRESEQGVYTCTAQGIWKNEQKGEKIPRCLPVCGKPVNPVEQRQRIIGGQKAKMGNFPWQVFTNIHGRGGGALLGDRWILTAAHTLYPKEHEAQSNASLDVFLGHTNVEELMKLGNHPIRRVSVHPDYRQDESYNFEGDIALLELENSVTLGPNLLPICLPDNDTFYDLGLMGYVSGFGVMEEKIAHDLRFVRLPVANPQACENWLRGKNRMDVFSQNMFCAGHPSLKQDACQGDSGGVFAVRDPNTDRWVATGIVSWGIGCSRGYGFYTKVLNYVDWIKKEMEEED

[5] = molecular target: T5, C1r_(CCP1-CCP2-SP-auto) (autolytic fragment of human C1r, Leu-300 to Asp-705) (human, UniProt P00736 300-705); assay: as above; settings: both partners purified
T5 construct: complement C1r, human, residues Leu-300 to Asp-705 by mass spectrometry: last six residues of CUB2 and all of CCP1-CCP2-SP; Runs as one 55 kDa band on non-reducing SDS-PAGE; also called 55 kDa band; autolytic C1r fragment; source: autolytic digestion of bought purified C1r (Complement Tech) overnight at 37 °C; used in the digestion mix (SEC) and purified (SPR)
T5 sequence: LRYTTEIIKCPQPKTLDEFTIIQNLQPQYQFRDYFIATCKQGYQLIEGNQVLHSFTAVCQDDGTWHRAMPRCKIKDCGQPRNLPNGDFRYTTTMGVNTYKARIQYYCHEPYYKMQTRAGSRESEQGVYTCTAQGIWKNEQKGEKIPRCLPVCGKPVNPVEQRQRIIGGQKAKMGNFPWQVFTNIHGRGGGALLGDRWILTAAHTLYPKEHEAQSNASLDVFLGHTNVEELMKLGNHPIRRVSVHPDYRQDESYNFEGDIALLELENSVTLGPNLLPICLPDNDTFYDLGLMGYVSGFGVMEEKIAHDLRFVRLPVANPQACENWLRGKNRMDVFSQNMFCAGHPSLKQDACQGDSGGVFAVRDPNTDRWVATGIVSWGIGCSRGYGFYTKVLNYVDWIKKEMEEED

[6] = molecular target: T6, C1r CCP1-CCP2-SP-auto, autolytic fragment of human C1r (Leu-300 to Asp-705) (human, UniProt P00736 300-705); assay: SPR; Biacore T200, 25°C; BBK32(206-348) immobilised by amine coupling; C1r fragments as analytes, single-cycle kinetics as for C1r, 0.8 to 500 nM; 1:1 kinetic fit; triplicate; settings: both partners purified
T6 construct: complement C1r, human, residues Leu-300 to Asp-705 by mass spectrometry: last six residues of CUB2 and the whole of CCP1-CCP2-SP; Migrates as one 55 kDa band on non-reducing SDS-PAGE; also called 55 kDa fragment; source: autolytic digestion of bought C1r (Complement Tech) overnight at 37°C, purified
T6 sequence: T5 sequence

[7] = molecular target: T7, recombinant His-C1r-CCP2-SP (residues 376-705) (human, UniProt P00736 376-705); assay: as above; settings: both partners purified
T7 construct: complement C1r, human, CCP2-SP domains, residues 376-705 (domains as defined by UniProt P00736); also called rHIS-C1r-CCP2-SP
T7 sequence: T4 sequence

B1: BGD19-C (residues 206-354, B. garinii strain IP90) (domain or fragment)
chain: SNRYQSYLEGVKYNVDSAIKTITKIYDTYTLFLTKLTQMYSTRLDNLAKAKAKEEAAKFTKEDLEKNFKTLLNYIQVSVKTATNFVYINDTHAKRKLENIETKIKTLIAKIKEKSNLYQAYKAIVRPILLMRDSLKEVQGAIDKNGIWY
For B1, the “IC50 of C3b deposition, classical pathway-specific ELISA with normal human serum” value [1] was 32 nM, the “IC50 of MAC deposition, classical pathway-specific ELISA with normal human serum” value [1] was 35 nM and the “IC50 of classical pathway hemolysis of sensitized sheep red blood cells by human serum; no saturable inhibition up to 1 uM” value [1] was about 7.6 µM.

B2: BGD19-C (residues 206-354, B. garinii strain IP90) (domain or fragment)
chain: B1 chain
B2 showed a Kd [2] of 5.3 nM, a koff [2] of 8.1e-05 s⁻¹ and a kon [2] of 15000 M⁻¹ s⁻¹. For the same binder, the Kd [3] was 3 nM, the koff [3] was 0.00035 s⁻¹ and the kon [3] was 120000 M⁻¹ s⁻¹.

B3: BBK32-C (residues 206-354, B. burgdorferi strain B31) (domain or fragment)
chain: SNRYQSYLEGVKYNVDSAIQTITKIYNTYTLFSTKLTQMYSTRLDNFAKAKAKEEAAKFTKEDLEKNFKTLLNYIQVSVKTAANFVYINDTHAKRKLENIEAEIKTLIAKIKEQSNLYEAYKAIVTSILLMRDSLKEVQGIIDKNGVWY
For B3, the “IC50 of C3b deposition, classical pathway-specific ELISA with normal human serum” value [1] was 14 nM, the “IC50 of MAC deposition, classical pathway-specific ELISA with normal human serum” value [1] was 13 nM and the “IC50 of classical pathway hemolysis of sensitized sheep red blood cells by human serum” value [1] was 170 nM.

B4: BXK32-C (BBK32-C E308K-Q319K-E324Q) (domain or fragment, Borrelia burgdorferi strain B31, UniProt O50835 206-354, looked up)
chain: B3 chain with E103K, Q114K, E119Q
notes: BBK32, Borrelia burgdorferi strain B31, residues 206-354 (the limits of BBK32-C) with three residues changed to those of B. garinii BGD19; also called BBK32-E308K-Q319K-E324Q; chimeric BBK32-C; source: recombinant, E. coli codon-optimized synthetic DNA in pT7HMT, purified to homogeneity
Work on B4 yielded a Kd [2] of 7.1 nM, a koff [2] of 0.00016 s⁻¹ and a kon [2] of 22000 M⁻¹ s⁻¹.

B5: BBK32-C (residues 206-354, B. burgdorferi strain B31) (domain or fragment)
chain: B3 chain
notes: BBK32, Borrelia burgdorferi sensu stricto strain B31, residues 206-354; also called BBK32(206-354); source: recombinant, sub-cloned into pT7HMT, purified to homogeneity
For B5, the Kd [2] was 5.1 nM, the koff [2] was 8.6e-05 s⁻¹ and the kon [2] was 17000 M⁻¹ s⁻¹.

B6: BBK32_((206-348)) (residues 206-348, B. burgdorferi strain B31) (domain or fragment)
chain: SNRYQSYLEGVKYNVDSAIQTITKIYNTYTLFSTKLTQMYSTRLDNFAKAKAKEEAAKFTKEDLEKNFKTLLNYIQVSVKTAANFVYINDTHAKRKLENIEAEIKTLIAKIKEQSNLYEAYKAIVTSILLMRDSLKEVQGIID
notes: BBK32 of Borrelia burgdorferi strain B31, residues 206-348 (lacks six C-terminal residues relative to BBK32-C); The deposited model holds residues 209-348; also called BBK32-C_((206-348)); crystallization construct
B6 showed a Kd [4] of 3.9 nM and a Kd [5] of 1.5 nM.

B7: BBK32(206-348) (residues 206-348, B. burgdorferi strain B31) (domain or fragment)
chain: B6 chain
notes: BBK32, Borrelia burgdorferi strain B31, residues 206-348 (lacks six C-terminal residues relative to BBK32-C); also called BBK32-C(206-348); source: recombinant, sub-cloned into pT7HMT, purified to homogeneity
B7 was tested, and the koff [6] was 2.6e-05 s⁻¹, the kon [6] was 17000 M⁻¹ s⁻¹ and the koff [7] was 3.7e-05 s⁻¹. It also gave a kon [7] of 9400 M⁻¹ s⁻¹, a Kd [2] of 0.75 nM and a koff [2] of 9.7e-06 s⁻¹. For the same binder, the kon [2] was 13000 M⁻¹ s⁻¹.
